Experimental data published in article PMC11814294, “A pathogen effector HaRxL10 hijacks the circadian clock component CHE to perturb both plant development and immunity” (Nature Communications, 2025).

B1: MBP-His-CHE (natural protein)
chain: not shown
notes: Vector pQLink (MBP-His-tag); Printed molecular weight 70.1 kD; source: E. coli BL21 (DE3), purified (amylose resin); not shown: MBP, N-terminal, kept; His, N-terminal, kept
B2: His-CHE (natural protein)
chain: not shown
notes: Vector pET28a (His-tag); source: E. coli BL21 (DE3), purified (Ni-NTA); not shown: His, N-terminal, kept

Assays:
GST-His-ZTL [1] = biological target: T1, GST-His-ZTL (Arabidopsis thaliana, UniProt Q94BT6 1-609, RED-NHS 2nd Generation fluorescent label (in the MST assay only)); assay: pull-down; MBP-His-CHE and GST-His-ZTL in equal amounts (about 5 ug), amylose resin, MBP column buffer (20 mM Tris-HCl pH 7.4, 0.2 M NaCl, 1 mM EDTA), 2-3 h at 4 °C; blots with anti-MBP and anti-GST; details: both partners purified
T1 construct: Vector pET-42a (GST-tag); Printed molecular weight 99 kD; Called GST-His-ZTL in the pull-downs and GST-ZTL in the MST assay; also called GST-ZTL; ZEITLUPE; source: E. coli BL21 (DE3), purified (GST-beads); not shown: GST, N-terminal, kept; His, N-terminal, kept

GST-His-ZTL [2] = biological target: T1, GST-His-ZTL; assay: MST; 50 nM RED-NHS-labelled GST-ZTL with serially diluted His-CHE, without or with 5 uM His-HaRxL10; 50 mM Tris-HCl pH 7.4, 150 mM NaCl, 10 mM MgCl2, 0.1% Pluronic F-127, Tween-20; 25 °C; Monolith NT.115; details: both partners purified

T1 sequence (Q94BT6 whole entry): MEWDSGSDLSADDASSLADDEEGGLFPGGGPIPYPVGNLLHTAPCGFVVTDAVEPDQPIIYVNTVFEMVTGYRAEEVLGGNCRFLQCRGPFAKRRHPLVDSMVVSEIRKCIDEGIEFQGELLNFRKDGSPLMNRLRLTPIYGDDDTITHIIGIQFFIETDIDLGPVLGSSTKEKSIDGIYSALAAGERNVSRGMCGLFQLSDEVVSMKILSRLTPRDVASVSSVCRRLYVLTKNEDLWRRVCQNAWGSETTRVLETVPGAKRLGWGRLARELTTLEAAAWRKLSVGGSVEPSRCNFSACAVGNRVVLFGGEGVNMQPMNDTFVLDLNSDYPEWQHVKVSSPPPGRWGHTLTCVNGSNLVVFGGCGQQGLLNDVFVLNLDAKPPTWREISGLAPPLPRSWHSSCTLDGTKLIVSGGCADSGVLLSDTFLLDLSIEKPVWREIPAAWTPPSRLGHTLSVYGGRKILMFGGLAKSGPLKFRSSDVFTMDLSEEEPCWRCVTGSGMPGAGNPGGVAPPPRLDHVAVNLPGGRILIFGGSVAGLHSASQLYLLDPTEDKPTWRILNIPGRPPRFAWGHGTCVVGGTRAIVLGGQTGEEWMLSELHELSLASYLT

Binder | binding result (GST-His-ZTL [1]) | binding result (GST-His-ZTL [2])
B1 | binds | –
B2 | – | binds
